Experimental data published in the supplement of paper PMC7125110.
± gives the standard error. For some assays here: This sample holds only a part of the variants without activity.

B1: glmS ribozyme (parent)
chain: AUAAAAGCGCCAGAACUACAGAAAUGUAGUUGACGAGGAGGAGGUUUAUCGAAUUUUCGGCGGAUGCCUCCAAA

Legend:
Conditions in all cases: with glucosamine-6-phosphate
glucosamine-6-phosphate [1] = variants of: B1; assay: kcat; higher = faster cleavage; RNA array
Summary of the method: (§1)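 kcat and KM were obtained from weighted Michaelis–Menten fits across concentrations of kobs values. Those came from one- or two-exponential decay fits to per-tile medians normalised to baseline and to non-cleaving reference variants. The variants were barcoded ribozymes transcribed in situ by E. coli RNA polymerase on sequenced MiSeq chips and tracked through a hybridised Cy3 probe at 37 °C, with 40 μM to 10 mM glucosamine-6-phosphate in HEPES/KCl/Mg(OAc)2 buffer flowed in.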

glucosamine-6-phosphate [2] = variants of: B1; assay: self-cleavage kobs at 10000 uM GlcN6P; higher = faster cleavage; RNA array
Summary of the method: as §1

glucosamine-6-phosphate [3] = variants of: B1; assay: KM; higher = weaker cofactor use; RNA array
Summary of the method: as §1

glucosamine-6-phosphate [4] = variants of: B1; assay: self-cleavage kobs at 160 uM GlcN6P; higher = faster cleavage; RNA array
Summary of the method: as §1

glucosamine-6-phosphate [5] = variants of: B1; assay: self-cleavage kobs at 640 uM GlcN6P; higher = faster cleavage; RNA array
Summary of the method: as §1

glucosamine-6-phosphate [6] = variants of: B1; assay: self-cleavage kobs at 2500 uM GlcN6P; higher = faster cleavage; RNA array
Summary of the method: as §1

glucosamine-6-phosphate [7] = variants of: B1; assay: self-cleavage kobs at 40 uM GlcN6P; higher = faster cleavage; RNA array
Summary of the method: as §1

Variant | kcat (glucosamine-6-phosphate [1]) [s⁻¹] | self-cleavage kobs at 10000 uM GlcN6P (glucosamine-6-phosphate [2]) [s⁻¹] | KM (glucosamine-6-phosphate [3]) [µM] | self-cleavage kobs at 160 uM GlcN6P (glucosamine-6-phosphate [4]) [s⁻¹] | self-cleavage kobs at 640 uM GlcN6P (glucosamine-6-phosphate [5]) [s⁻¹] | self-cleavage kobs at 2500 uM GlcN6P (glucosamine-6-phosphate [6]) [s⁻¹] | self-cleavage kobs at 40 uM GlcN6P (glucosamine-6-phosphate [7]) [s⁻¹]
C10A C50U | < 1e-05 | < 1e-05 | – | – | – | – | –
A15U U65A | 0.000377 ± 6.3e-05 | 0.00039 ± 5.6e-05 | 1080 ± 410 | 6.26e-05 ± 2.2e-05 | 0.000146 ± 2.3e-05 | 0.00021 ± 4.1e-05 | –
G38U G62A | < 1e-05 | – | – | < 1e-05 | – | – | –
A14C A42G | 0.0097 ± 0.0025 | 0.00788 ± 0.0011 | 2690 ± 890 | 0.000475 ± 7.2e-05 | 0.00154 ± 0.00023 | 0.00494 ± 0.00075 | 0.000181 ± 2e-05
C50U G59A | < 1e-05 | < 1e-05 | – | < 1e-05 | – | < 1e-05 | < 1e-05
A15C A48U | 5.55e-05 ± 7.9e-06 | 4.26e-05 ± 1.2e-05 | 2840 ± 1100 | – | – | 2.83e-05 ± 1.2e-05 | < 1e-05
G29C G32U A33U C50G U56G G66C U69C | 1.64e-05 ± 5.6e-06 | – | – | – | – | – | –
C58G C61G | 3.21e-05 ± 1e-05 | – | – | – | 5.63e-05 ± 2.4e-05 | – | –
G32A G44C C67U | 0.000144 ± 5.9e-05 | 0.00011 ± 2.3e-05 | – | – | – | 0.000148 ± 4.6e-05 | < 1e-05
G29C G40A | 0.000208 ± 2.8e-05 | 0.000178 ± 2.1e-05 | 747 ± 260 | 3.05e-05 ± 9.1e-06 | 0.000102 ± 1.6e-05 | 0.000221 ± 3.6e-05 | –
G41U A53G | 0.00129 ± 0.00028 | 0.00153 ± 0.00029 | 291 ± 120 | 0.000362 ± 7.8e-05 | 0.00133 ± 0.0002 | 0.000959 ± 0.00015 | 0.000167 ± 2.7e-05
G29U A36U | < 1e-05 | – | – | – | – | < 1e-05 | –
C67G C68U | 7.04e-05 ± 1.8e-06 | 6.92e-05 ± 6.7e-06 | 234 ± 34 | 2.51e-05 ± 1e-05 | 5.35e-05 ± 6.6e-06 | 6.33e-05 ± 6e-06 | –
A33C G37A | < 1e-05 | – | – | < 1e-05 | – | – | < 1e-05
G44U A53G | 0.000308 ± 2.1e-05 | 0.00028 ± 3.8e-05 | 997 ± 240 | 3.95e-05 ± 1.8e-05 | – | 0.000223 ± 6e-05 | –
G29A U46G | 0.00124 ± 0.00055 | 0.00128 ± 0.00027 | – | 5.62e-05 ± 1.3e-05 | 0.000243 ± 4.1e-05 | 0.000425 ± 7.7e-05 | –
